Test results reported in publication PMC12867984, “Functional assessment of protein variants in structured domains by fluorescence cross-correlation spectroscopy” (Scientific Reports, 2026).
Where a chain is given by its changes, count along the chain named. Numbers in names are those of the source. Blank lines part the entries; values can stand above or below the binder they belong to.

Experiments:
Conditions in all cases: partners not purified
[1] = biological target: T1, mCherry-RBBP8 (UniProt Q99708 1-897); test: fluorescence cross-correlation spectroscopy (FCCS); GFP- and mCherry-tagged proteins co-expressed in live HeLa cells; focal volume in the nucleoplasm (MSH2-MSH6 also in the cytoplasm); room temperature; cross-correlation/autocorrelation ratio
T1 construct: also called mCherry-RBBP8/CtIP; CtIP; source: HeLa, transfected, in live cells and in lysate

[2] = biological target: T2, mCherry-BARD1 (UniProt Q99728 1-777); test: as above
T2 construct: also called BRCA1 Associated RING Domain 1; source: HeLa, transfected, in live cells and in lysate
T2 sequence (looked up): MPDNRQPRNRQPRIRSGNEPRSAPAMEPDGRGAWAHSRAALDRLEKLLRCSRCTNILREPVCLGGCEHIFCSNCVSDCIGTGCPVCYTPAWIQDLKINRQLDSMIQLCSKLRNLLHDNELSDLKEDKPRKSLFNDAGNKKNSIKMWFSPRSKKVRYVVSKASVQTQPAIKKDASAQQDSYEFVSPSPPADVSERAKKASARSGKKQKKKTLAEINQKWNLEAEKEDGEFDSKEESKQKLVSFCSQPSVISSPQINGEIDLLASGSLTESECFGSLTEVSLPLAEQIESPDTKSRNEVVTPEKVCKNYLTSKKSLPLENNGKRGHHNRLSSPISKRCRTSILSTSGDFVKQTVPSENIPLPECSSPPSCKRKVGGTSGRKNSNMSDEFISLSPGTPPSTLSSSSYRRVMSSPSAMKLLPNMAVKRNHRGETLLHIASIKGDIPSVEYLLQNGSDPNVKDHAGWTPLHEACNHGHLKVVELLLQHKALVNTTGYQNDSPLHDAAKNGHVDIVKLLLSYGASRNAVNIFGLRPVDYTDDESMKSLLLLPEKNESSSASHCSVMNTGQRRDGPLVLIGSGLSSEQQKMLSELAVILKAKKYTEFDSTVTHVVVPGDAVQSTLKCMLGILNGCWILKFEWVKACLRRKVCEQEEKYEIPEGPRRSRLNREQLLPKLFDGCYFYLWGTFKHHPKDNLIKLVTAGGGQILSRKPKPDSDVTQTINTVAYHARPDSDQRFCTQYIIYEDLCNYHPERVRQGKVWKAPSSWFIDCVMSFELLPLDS

[3] = biological target: T1, mCherry-RBBP8; test: fluorescence cross-correlation spectroscopy (FCCS); lysate of co-transfected HeLa cells; 20 mM Tris-HCl pH 7.5, 140 mM KCl, 1.5 mM MgCl2, 1 mM DTT, 0.5% NP-40; lysed at room temperature; cross-correlation/autocorrelation ratio

T1 sequence (Q99708 whole entry): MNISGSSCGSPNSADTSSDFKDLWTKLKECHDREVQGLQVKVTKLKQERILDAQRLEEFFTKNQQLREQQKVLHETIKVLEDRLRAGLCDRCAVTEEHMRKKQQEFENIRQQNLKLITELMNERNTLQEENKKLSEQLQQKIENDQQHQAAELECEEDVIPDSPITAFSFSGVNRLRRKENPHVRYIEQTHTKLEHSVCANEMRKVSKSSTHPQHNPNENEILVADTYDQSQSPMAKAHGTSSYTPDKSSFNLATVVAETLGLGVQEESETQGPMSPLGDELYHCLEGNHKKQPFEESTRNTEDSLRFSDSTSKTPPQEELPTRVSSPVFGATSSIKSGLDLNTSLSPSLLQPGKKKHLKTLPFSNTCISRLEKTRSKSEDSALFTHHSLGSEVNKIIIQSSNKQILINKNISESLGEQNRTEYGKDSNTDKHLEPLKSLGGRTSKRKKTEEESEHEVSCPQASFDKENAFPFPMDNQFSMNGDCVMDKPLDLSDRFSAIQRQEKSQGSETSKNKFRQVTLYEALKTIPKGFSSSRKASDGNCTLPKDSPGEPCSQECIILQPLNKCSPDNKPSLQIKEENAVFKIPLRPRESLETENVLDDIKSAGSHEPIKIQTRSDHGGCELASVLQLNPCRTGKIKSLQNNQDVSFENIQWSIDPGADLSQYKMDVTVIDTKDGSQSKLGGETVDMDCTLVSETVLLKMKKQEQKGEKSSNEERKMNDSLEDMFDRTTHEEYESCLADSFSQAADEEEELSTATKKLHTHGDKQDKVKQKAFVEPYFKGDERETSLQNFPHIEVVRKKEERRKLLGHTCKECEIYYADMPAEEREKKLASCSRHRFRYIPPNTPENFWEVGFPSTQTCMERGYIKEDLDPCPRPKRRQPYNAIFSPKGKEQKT

reduction in binding relative to wild type [1]: ~50%
B1: GFP-BRCA1 p.Thr1684Ala (natural protein, UniProt P38398 1-1863, looked up)
chain: MDLSALRVEEVQNVINAMQKILECPICLELIKEPVSTKCDHIFCKFCMLKLLNQKKGPSQCPLCKNDITKRSLQESTRFSQLVEELLKIICAFQLDTGLEYANSYNFAKKENNSPEHLKDEVSIIQSMGYRNRAKRLLQSEPENPSLQETSLSVQLSNLGTVRTLRTKQRIQPQKTSVYIELGSDSSEDTVNKATYCSVGDQELLQITPQGTRDEISLDSAKKAACEFSETDVTNTEHHQPSNNDLNTTEKRAAERHPEKYQGSSVSNLHVEPCGTNTHASSLQHENSSLLLTKDRMNVEKAEFCNKSKQPGLARSQHNRWAGSKETCNDRRTPSTEKKVDLNADPLCERKEWNKQKLPCSENPRDTEDVPWITLNSSIQKVNEWFSRSDELLGSDDSHDGESESNAKVADVLDVLNEVDEYSGSSEKIDLLASDPHEALICKSERVHSKSVESNIEDKIFGKTYRKKASLPNLSHVTENLIIGAFVTEPQIIQERPLTNKLKRKRRPTSGLHPEDFIKKADLAVQKTPEMINQGTNQTEQNGQVMNITNSGHENKTKGDSIQNEKNPNPIESLEKESAFKTKAEPISSSISNMELELNIHNSKAPKKNRLRRKSSTRHIHALELVVSRNLSPPNCTELQIDSCSSSEEIKKKKYNQMPVRHSRNLQLMEGKEPATGAKKSNKPNEQTSKRHDSDTFPELKLTNAPGSFTKCSNTSELKEFVNPSLPREEKEEKLETVKVSNNAEDPKDLMLSGERVLQTERSVESSSISLVPGTDYGTQESISLLEVSTLGKAKTEPNKCVSQCAAFENPKGLIHGCSKDNRNDTEGFKYPLGHEVNHSRETSIEMEESELDAQYLQNTFKVSKRQSFAPFSNPGNAEEECATFSAHSGSLKKQSPKVTFECEQKEENQGKNESNIKPVQTVNITAGFPVVGQKDKPVDNAKCSIKGGSRFCLSSQFRGNETGLITPNKHGLLQNPYRIPPLFPIKSFVKTKCKKNLLEENFEEHSMSPEREMGNENIPSTVSTISRNNIRENVFKEASSSNINEVGSSTNEVGSSINEIGSSDENIQAELGRNRGPKLNAMLRLGVLQPEVYKQSLPGSNCKHPEIKKQEYEEVVQTVNTDFSPYLISDNLEQPMGSSHASQVCSETPDDLLDDGEIKEDTSFAENDIKESSAVFSKSVQKGELSRSPSPFTHTHLAQGYRRGAKKLESSEENLSSEDEELPCFQHLLFGKVNNIPSQSTRHSTVATECLSKNTEENLLSLKNSLNDCSNQVILAKASQEHHLSEETKCSASLFSSQCSELEDLTANTNTQDPFLIGSSKQMRHQSESQGVGLSDKELVSDDEERGTGLEENNQEEQSMDSNLGEAASGCESETSVSEDCSGLSSQSDILTTQQRDTMQHNLIKLQQEMAELEAVLEQHGSQPSNSYPSIISDSSALEDLRNPEQSTSEKAVLTSQKSSEYPISQNPEGLSADKFEVSADSSTSKNKEPGVERSSPSKCPSLDDRWYMHSCSGSLQNRNYPSQEELIKVVDVEEQQLEESGPHDLTETSYLPRQDLEGTPYLESGISLFSDDPESDPSEDRAPESARVGNIPSSTSALKVPQLKVAESAQSPAAAHTTDTAGYNAMEESVSREKPELTASTERVNKRMSMVVSGLTPEEFMLVYKFARKHHITLTNLITEEATHVVMKTDAEFVCERTLKYFLGIAGGKWVVSYFWVTQSIKERKMLNEHDFEVRGDVVNGRNHQGPKRARESQDRKIFRGLEICCYGPFTNMPTDQLEWMVQLCGASVVKELSSFTLGTGVHPIVVVQPDAWTEDNGFHAIGQMCEAPVVTREWVLDSVALYQCQELDTYLIPQIPHSHY
notes: also called T1684A; source: HeLa, transfected, in live cells

reduction in binding relative to wild type [2]: ~50%
B2: GFP-BRCA1-C44F (natural protein, UniProt P38398 1-1863, looked up)
chain: B1 chain with C44F, A1684T
notes: also called p.Cys44Phe; source: HeLa, transfected, in live cells

cross-correlation [3]: 17%
B3: GFP-BRCT (isolated BRCA1 BRCT domain, wild-type) (domain or fragment, UniProt P38398 1650-1863, looked up)
chain: MSMVVSGLTPEEFMLVYKFARKHHITLTNLITEETTHVVMKTDAEFVCERTLKYFLGIAGGKWVVSYFWVTQSIKERKMLNEHDFEVRGDVVNGRNHQGPKRARESQDRKIFRGLEICCYGPFTNMPTDQLEWMVQLCGASVVKELSSFTLGTGVHPIVVVQPDAWTEDNGFHAIGQMCEAPVVTREWVLDSVALYQCQELDTYLIPQIPHSHY
notes: BRCA1 amino acids 1650-1864 cloned into pEGFP-C1; the printed limit 1864 may count the stop codon; also called EGFP-tagged BRCT trimmed domain; source: HeLa, transfected, in lysate
